# In paper PMC6084945, “SURGE complex of Plasmodium falciparum in the rhoptry-neck (SURFIN4.2-RON4-GLURP) contributes to merozoite invasion” (PLoS ONE, 2018):
# Target: the molecule itself
# Experiment: non-reducing SDS-PAGE; purified recombinant protein eluted from the nickel resin, Coomassie stained gel with and without 2-mercaptoethanol; dimer size band under non-reducing conditions
protein,measurement,value
"recombinant SURFIN4.2 extracellular domain (position 1-746), N-terminal 6x histidine-tagged (domain or fragment) MLFVVELDSRLEKSADKRISVERFRKIFEIYVEDKLEELKRSGSEKYDKDCRDFNYFIDDVKDVFINNDLVKIPVKVRKSIWETHVDKNLPKLMKNTTSCKCIRKEHNYNKEYRDMTRTLEDFCEEKTRKLEIIYQKDYDESLYVNFNEWINKKKEDILKEYEKLSNKDKYKHLLKISETCDLNHVDKLFLNISSEDMKKMKEDVKKQHLEVKVRPPVNEPIDDRGKEDALSRGGKSIILNKEENSPTEEITTEYNPVSEMGVGTTIAHSEPGPKTVNTEVRNVLRSDGKISDQGSQKSPPKELSNKQMTPAQRKNVPHFVERRGYGNSHVRGNALKKISNGDDNYKSPSSNYIEVDCAEDKYFLLEDGTNQSENSCKTKYNYFVSNDYDGTGSAIYSTDQVPSREEIKSPDSLSTLDARGSTHNLNVSNEGNPLEGGEEKNNVKISEQNGRNLESSVGTDKGSDKNEEEVAATCDPNDRNCFDGRYINVDYIRGLLKGKRSGSDGRSNIKHIISNNFDDSNMIFPTFNFDFDILKAEEEVLPVNNSDIIYGHEEVEETTQEGASIFEKHSHTSSQQNDSSASGNKYRMLSTTMELPNQQEVFGLYSPVSRTLDSAMSFLRSIISLSSAPVSRSEGQSKESKRVEISTTVQDPIGYRTSPLQMNAHSVGAGINVSSILSMLGLSSGQVRRSGGQGSETYIVGTSQSGFHKNEVIPSIKDKSGKTQIVSNEKGGIFSKGITSMMSSL",stoichiometry N,2
